Results published in publication PMC5165034 (2016).
Changes are numbered by the printed parent chain.

Molecular target: bromelain-released HA (BHA) of influenza X-31 (influenza A strain X-31 (H3N2))
Assay: BLI

B1: 2F4 HCAb (antibody, V domains shown)
VH: EVQLVESGGGLVKPGGSLRLSCAASGFAFSDYYMSWLRQAPGKGLEWVSYISSSGSNIYYADSVKGRFTISRDNAKNSLYLQMNSLRAEDTAVYYCARGAGVFDYLGQGGRGTLVTVSS
- Kd: 5.6 nM

B2: 1G11 HCAb (antibody, V domains shown)
VH: EVQLVESGGGLVKPGGSLRLSCAASGFTFSDYYMSWIRQTPGKGLEWVSYISSSGSNIYYADSVKGRFTISRDNAKNSLYLQMNSLRAEDTAVYYCARGISMARDSWGQGTLVTVSS
- Kd: 2.9 nM

B3: 1F4 HCAb (antibody, V domains shown)
VH: B2 VH with T40A, N57T, I100V, S101K, M102L, A103T, R104E, S106D
- Kd: 6.6 nM

B4: 1C12 HCAb (antibody, V domains shown)
VH: B2 VH with T40A, N57T, I100V, S101A, A103V, T114N
- Kd: 1.8 nM

B5: 3A8 HCAb (antibody, V domains shown)
VH: B2 VH with T40A, S56D, N57I, Y80F, A97T, I100V, M102L, A103V, S106Y, L112Q
- Kd: 3.2 nM

B6: 7F2 HCAb (antibody, V domains shown)
VH: EVQLVESGGGLVKPGGSLRLSCAASGFTFSADYMSWIRQAPGKGLEWVSYISSSGSSIYYADSVKGRFTISRDNAKNSLYLQMNSLRAEDTAVYYCARGWFGESHSFDYWGQGTLVTVSS
- Kd: 35 nM
